For this assay, the target named is HLA-A*02:01-restricted MART-1 epitope, A*02:0. Put plainly: cell-based or functional assay.

DMF4 (TCR) showed a frequency of the TCR in post-real-selection (CD137-positive, sorted) against pre-selection polyclonal TCR-T cells, by NGS of 10 fold.

The values are drawn from patent publication US20220389406A1.
